Source: patent US20240352102A1 (UNITED STATES GOVERNMENT AS REPRESENTED BY THE DEPARTMENT …, published 2024)

Tests used:
Test in all cases: peptide microarray
Peptide_070 = target: T1, Peptide_070
T1 peptide: VQIVYKPVDLSKVTS

Peptide_055 = target: T2, Peptide_055
T2 peptide: APVPMPDLKNVKSKI

Peptide_053 = target: T3, Peptide_053
T3 peptide: SAKSRLQTAPVPMPD

Peptide_037 = target: T4, Peptide_037
T4 peptide: KTPPAPKTPPSSGEP

Peptide_058 = target: T5, Peptide_058
T5 peptide: SKIGSTENLKHQPGG

Peptide_064 = target: T6, Peptide_064
T6 peptide: LDLSNVQSKCGSKDN

Peptide_054 = target: T7, Peptide_054
T7 peptide: RLQTAPVPMPDLKNV

Peptide_071 = target: T8, Peptide_071
T8 peptide: YKPVDLSKVTSKCGS

Peptide_065 = target: T9, Peptide_065
T9 peptide: NVQSKCGSKDNIKHV

Peptide_074 = target: T10, Peptide_074
T10 peptide: CGSLGNIHHKPGGGQ

Peptide_042 = target: T11, Peptide_042
T11 peptide: RSGYSSPGSPGTPGS

Peptide_039 = target: T12, Peptide_039
T12 peptide: PPSSGEPPKSGDRSG

Peptide_068 = target: T13, Peptide_068
T13 peptide: KHVPGGGSVQIVYKP

Peptide_063 = target: T14, Peptide_063
T14 peptide: INKKLDLSNVQSKCG

Peptide_049 = target: T15, Peptide_049
T15 peptide: EPKKVAVVRTPPKSP

Peptide_066 = target: T16, Peptide_066
T16 peptide: KCGSKDNIKHVPGGG

Peptide_069 = target: T17, Peptide_069
T17 peptide: GGGSVQIVYKPVDLS

Peptide_057 = target: T18, Peptide_057
T18 peptide: KNVKSKIGSTENLKH

Peptide_062 = target: T19, Peptide_062
T19 peptide: KVQIINKKLDLSNVQ

Peptide_002 = target: T20, Peptide_002
T20 peptide: RQEFEVMEDHAGTYG

Peptide_023 = target: T21, Peptide_023
T21 peptide: AAGHVTQARMVSKSK

Peptide_011 = target: T22, Peptide_011
T22 peptide: AGLKESPLQTPTEDG

Peptide_004 = target: T23, Peptide_004
T23 peptide: DHAGTYGLGDRKDQG

Peptide_016 = target: T24, Peptide_016
T24 peptide: SETSDAKSTPTAEAE

Peptide_022 = target: T25, Peptide_022
T25 peptide: LEDEAAGHVTQARMV

Peptide_036 = target: T26, Peptide_036
T26 peptide: RIPAKTPPAPKTPPS

Peptide_007 = target: T27, Peptide_007
T27 peptide: DQGGYTMHQDQEGDT

Peptide_029 = target: T28, Peptide_029
T28 peptide: AKGADGKTKIATPRG

Peptide_019 = target: T29, Peptide_019
T29 peptide: EAEEAGIGDTPSLED

Peptide_008 = target: T30, Peptide_008
T30 peptide: YTMHQDQEGDTDAGL

Peptide_015 = target: T31, Peptide_015
T31 peptide: EEPGSETSDAKSTPT

Peptide_010 = target: T32, Peptide_010
T32 peptide: GDTDAGLKESPLQTP

Peptide_031 = target: T33, Peptide_031
T33 peptide: KIATPRGAAPPGQKG

Peptide_006 = target: T34, Peptide_006
T34 peptide: GDRKDQGGYTMHQDQ

Peptide_027 = target: T35, Peptide_027
T35 peptide: GTGSDDKKAKGADGK

Peptide_024 = target: T36, Peptide_024
T36 peptide: VTQARMVSKSKDGTG

Peptide_026 = target: T37, Peptide_026
T37 peptide: KSKDGTGSDDKKAKG

Peptide_014 = target: T38, Peptide_014
T38 peptide: EDGSEEPGSETSDAK

Peptide_033 = target: T39, Peptide_033
T39 peptide: APPGQKGQANATRIP

Peptide_032 = target: T40, Peptide_032
T40 peptide: PRGAAPPGQKGQANA

Peptide_028 = target: T41, Peptide_028
T41 peptide: DDKKAKGADGKTKIA

Peptide_017 = target: T42, Peptide_017
T42 peptide: DAKSTPTAEAEEAGI

Peptide_018 = target: T43, Peptide_018
T43 peptide: TPTAEAEEAGIGDTP

Peptide_012 = target: T44, Peptide_012
T44 peptide: ESPLQTPTEDGSEEP

Peptide_005 = target: T45, Peptide_005
T45 peptide: TYGLGDRKDQGGYTM

Peptide_013 = target: T46, Peptide_013
T46 peptide: QTPTEDGSEEPGSET

Peptide_020 = target: T47, Peptide_020
T47 peptide: AGIGDTPSLEDEAAG

Measured: binding result

B1: mAb TRC35 (antibody, V domains shown)
VH: QVQLQQPGTELVKPGASVKLSCKASGYTFTSYWLQWVKQRPGQGLEWIGEIDPSDSYTNYNQKFKGKATLTVDTSSSTAYMQLSSLTSEDSAVYYCATLTGSWGQGTTLAVSS
VL: DVLLTQTPLSLPVSLGDQASISCRASQSIVDSNGNTFLEWYLQKSGQSPKVLIYKVSNRFSGVPDRFSGRGSGTDFTLKISRVEAEDLGVYYCFQGSHVPYTFGGGTKLEIK
notes: Mouse hybridoma monoclonal antibody raised in tau knockout mice against tau/poly(A) RNA complexes; IgG1 isotype, kappa light chain; also called TRC35 monoclonal antibody; hybridoma clone #35
no binding (tested: 1 ug/ml): all assays above
